Source: CN112390879A (UNIV SHANGHAI TECHNOLOGY, dated 2021)

Key:
SARS-CoV-2 S蛋白 (野生型) = SARS-CoV-2 S蛋白 (野生型) (SARS-CoV-2, UniProt P0DTC2 14-1273); test: cell-based or functional assay
SARS-CoV-2 S蛋白的RBD蛋白 [1] = molecular target: T1, SARS-CoV-2 S蛋白的RBD蛋白 (SARS-CoV-2, UniProt P0DTC2 319-541); test: SPR, Biacore T200, RBD immobilised on CM5 chip, antibody in solution, 1:1 model
T1 construct: domain: RBD

生物素化RBD = 生物素化RBD (SARS-CoV-2, UniProt P0DTC2 319-541)
SARS-CoV-2 S蛋白的RBD蛋白 [2] = molecular target: T1, SARS-CoV-2 S蛋白的RBD蛋白; test: ELISA, RBD coated at 2 μg/mL, 1F as human IgG1

B1: 抗体1F (antibody, V domains shown)
VH: EVQLVESGPGLVKPSETLSLTCTVSGGSISSSSYYWGWIRQPPGKGLEWIGSIYYRGSTYYNPSLKSRVTISVDTSKNQFSLKLSSVTAADTAVYYCARHVRSAYYYGSGSYRDEGNWFDPWGQGTLVTVSS
VL: QSVLTQPPSVSGAPGQRVTISCTGTRSNIGAGHDVHWYQQLPGTAPKLLIYGNNNRPSGVPDRFSGAKSGTSASLAITGLQAEDEADYYCQSYDRTLTSYVFGTGTKVTVL
With B1 the “中和SARS-CoV-2活病毒 (Vero-E6细胞, RT-PCR) IC50” value (SARS-CoV-2 S蛋白 (野生型)) was 0.018 µg/mL, the “中和野生型SARS-CoV-2假病毒 (293T-ACE2细胞, 荧光素酶) IC50” value (SARS-CoV-2 S蛋白 (野生型)) was 0.0464 µg/mL and the Kd (SARS-CoV-2 S蛋白的RBD蛋白 [1]) was 0.077 nM. For the same binder, the IC50 (生物素化RBD) was 0.213 µg/mL and the EC50 (SARS-CoV-2 S蛋白的RBD蛋白 [2]) was 0.0016 µg/mL.
